Data taken from the supplement of paper PMC11208486.
± gives the uncertainty stated by the source.

What was measured:
[1] = specific initial activity, cyclohex-2-enone reduction (U mg-1); higher = more active; details: co-solvent: methanol
Experimental: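 Specific initial activity of purified ene reductases with 10 mM cyclohex-2-enone and 0.2 mM NAD(P)H in 50 mM sodium phosphate pH 7.4 with 0-45% (v/v) ethanol or methanol, at set reaction temperatures of 25-45 °C. NAD(P)H depletion was followed at 340 nm for 480 s, in triplicate.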

[2] = melting temperature (ThermoFMN); higher = more thermostable
Experimental: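 Purified His-tagged ene reductases (1 mg/ml) in 50 mM sodium phosphate pH 7.4 with 0-30% (v/v) organic co-solvent. Melting temperature was measured by the ThermoFMN assay (FMN fluorescence, 20-90 °C at 1 °C/min, inflection point, triplicate). Specific initial activity was measured with 10 mM cyclohex-2-enone and 0.2 mM NAD(P)H (NADH for LacER) as A340 depletion, at room temperature (DMSO, 2-propanol, n-propanol) or 25 °C (EtOH, MeOH), in triplicate. The TsOYE Tm is above the 90 °C measurement range.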

MSFVKDFKPQALGDTNLFKPIKIGNNELLHRAVIPPLTRMRALHPGNIPNRDWAVEYYTQRAQRPGTMIITEGAFISPQAGGYDNAPGVWSEEQMVEWTKIFNAIHEKKSFVWVQLWVLGWAAFPDNLARDGLRYDSASDNVFMDAEQEAKAKKANNPQHSLTKDEIKQYIKEYVQAAKNSIAAGADGVEIHSANGYLLNQFLDPHSNTRTDEYGGSIENRARFTLEVVDALVEAIGHEKVGLRLSPYGVFNSMSGGAETGIVAQYAYVAGELEKRAKAGKRLAFVHLVEPRVTNPFLTEGEGEYEGGSNDFVYSIWKGPVIRAGNFALHPEVVREEVKDKRTLIGYGRFFISNPDLVDRLEKGLPLNKYDRDTFYQMSAHGYIDYPTYEEALKLGWDKK
[1]
Details	specific initial activity
co-solvent concentration (% v/v): 15, reaction temperature 35 °C	0.55 ± 0.04
co-solvent concentration (% v/v): 15, reaction temperature 40 °C	0.09 ± 0.07
co-solvent concentration (% v/v): 15, reaction temperature 45 °C	0.04 ± 0.04
co-solvent concentration (% v/v): 20, reaction temperature 25 °C	0.37 ± 0.04
co-solvent concentration (% v/v): 20, reaction temperature 30 °C	0.43 ± 0.01
co-solvent concentration (% v/v): 20, reaction temperature 35 °C	0.4 ± 0.08
co-solvent concentration (% v/v): 20, reaction temperature 40 °C	0.02 ± 0.04
co-solvent concentration (% v/v): 20, reaction temperature 45 °C	0.01 ± 0.01
co-solvent concentration (% v/v): 25, reaction temperature 25 °C	0.31 ± 0.06
co-solvent concentration (% v/v): 25, reaction temperature 30 °C	0.3 ± 0.01
co-solvent concentration (% v/v): 25, reaction temperature 35 °C	0.06 ± 0.04
co-solvent concentration (% v/v): 25, reaction temperature 40 °C	0.02 ± 0.01
co-solvent concentration (% v/v): 25, reaction temperature 45 °C	0.02 ± 0.01
co-solvent concentration (% v/v): 30, reaction temperature 25 °C	0.19 ± 0.03
co-solvent concentration (% v/v): 30, reaction temperature 30 °C	0.14 ± 0.02
co-solvent concentration (% v/v): 30, reaction temperature 35 °C	0.01
co-solvent concentration (% v/v): 30, reaction temperature 40 °C	0.01 ± 0.01
co-solvent concentration (% v/v): 30, reaction temperature 45 °C	0 ± 0.01
co-solvent concentration (% v/v): 35, reaction temperature 25 °C	0.03 ± 0.02
co-solvent concentration (% v/v): 35, reaction temperature 30 °C	0.04 ± 0.03
co-solvent concentration (% v/v): 35, reaction temperature 35 °C	0.01
co-solvent concentration (% v/v): 35, reaction temperature 40 °C	0
co-solvent concentration (% v/v): 35, reaction temperature 45 °C	0
co-solvent concentration (% v/v): 40, reaction temperature 25 °C	0.02 ± 0.02
co-solvent concentration (% v/v): 40, reaction temperature 30 °C	0.03 ± 0.01
co-solvent concentration (% v/v): 40, reaction temperature 35 °C	0 ± 0.01
co-solvent concentration (% v/v): 40, reaction temperature 40 °C	0.01 ± 0.01
co-solvent concentration (% v/v): 40, reaction temperature 45 °C	0.01 ± 0.01
co-solvent concentration (% v/v): 45, reaction temperature 25 °C	0.01
co-solvent concentration (% v/v): 45, reaction temperature 30 °C	0.03
co-solvent concentration (% v/v): 45, reaction temperature 35 °C	0.01
co-solvent concentration (% v/v): 45, reaction temperature 40 °C	0.01 ± 0.01
co-solvent concentration (% v/v): 45, reaction temperature 45 °C	0 ± 0.01

melting temperature [°C], [2]
Details	co-solvent concentration (% v/v): 0	co-solvent concentration (% v/v): 5	co-solvent concentration (% v/v): 10	co-solvent concentration (% v/v): 15	co-solvent concentration (% v/v): 20	co-solvent concentration (% v/v): 25	co-solvent concentration (% v/v): 30
co-solvent: 2-propanol	45	44 ± 1	41.3 ± 2.1	37.3 ± 0.58	34.7 ± 0.58	33.7 ± 0.58	28.3 ± 2.5
co-solvent: dimethyl sulfoxide	45	44.3 ± 0.58	43.3 ± 0.58	42	40.7 ± 0.58	39.3 ± 0.58	37.3 ± 0.58
co-solvent: ethanol	45.3 ± 0.58	43.3 ± 0.58	42 ± 1	39.7 ± 0.58	37.7 ± 0.58	35.3 ± 1.1	34.3 ± 0.58
co-solvent: methanol	46	45 ± 1	43 ± 1	42 ± 1	40.3 ± 0.58	37.7 ± 1.1	34.7 ± 2.1
co-solvent: n-propanol	45	40.3 ± 0.58	34.7 ± 0.58	31.7 ± 0.58	31	30.3 ± 0.58	27.3 ± 1.1
